Nanog-GFP negative cells by flow cytometry after plating dissociated iPSC-derived neurospheres on N-cad-Fc for 48 h (30% of cells on gelatin expressed Nanog) data for one substance are collected here from PMC4526632.

The assay concerns the target T1, recombinant mouse N-cadherin-Fc chimera (N-cadherin extracellular domain-Fc fusion protein) (mouse) (UniProt P15116).
T1 sequence: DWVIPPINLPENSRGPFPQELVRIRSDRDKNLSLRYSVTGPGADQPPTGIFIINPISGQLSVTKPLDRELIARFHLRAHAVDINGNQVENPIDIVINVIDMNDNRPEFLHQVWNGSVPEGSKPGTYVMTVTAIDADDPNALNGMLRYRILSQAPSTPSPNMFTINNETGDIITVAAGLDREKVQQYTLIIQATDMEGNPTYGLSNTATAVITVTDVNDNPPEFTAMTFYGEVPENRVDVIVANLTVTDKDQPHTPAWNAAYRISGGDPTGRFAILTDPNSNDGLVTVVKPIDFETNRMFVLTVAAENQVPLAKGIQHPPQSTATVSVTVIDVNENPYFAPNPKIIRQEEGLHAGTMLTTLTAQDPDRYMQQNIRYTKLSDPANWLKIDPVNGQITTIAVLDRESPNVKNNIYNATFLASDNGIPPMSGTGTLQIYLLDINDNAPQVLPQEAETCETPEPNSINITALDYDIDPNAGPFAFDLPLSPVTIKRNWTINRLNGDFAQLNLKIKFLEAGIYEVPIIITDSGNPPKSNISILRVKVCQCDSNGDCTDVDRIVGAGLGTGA

“cell surface N-cadherin of ESC/iPSC-derived neural progenitor cells (from UniProt P15116 160-906) (natural protein)”: the Nanog-GFP negative cells by flow cytometry after plating dissociated iPSC-derived neurospheres on N-cad-Fc for 48 h (30% of cells on gelatin expressed Nanog) was above 97%.
